# B1: UBE2R2 (parent)
# chain: DPQSGELPSERWNPTQNVRTILLS
# Variants of: B1
# Test: protein stability index of a GFP-peptide fusion (GPS, HEK-293T) (PSI 1-6); higher = more stable
# Conditions: c terminus: a fixed tail appended
# 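Further: lentivirally expressed fusions sorted by FACS into six bins by GFP to DsRed ratio, PSI derived from sequencing read proportions per bin multiplied by bin number.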
row,Variant,protein stability index
1,R11P,3.71
2,R11N,3.48
3,R11L,3.24
4,R11I,2.77
5,R11G,4.23
6,R11Q,4.04
7,R11S,3.56
8,R11A,3.77
9,R11T,3.98
10,R11V,3.62
11,R11Y,2.82
12,R11C,3.76
13,R11M,3.22
14,R11E,4.44
15,R11F,2.82
16,R11H,3.3
17,R11K,3.5
18,R11W,2.79
19,R11D,3.88
20,P8I,2.69
21,P8Q,3.57
22,P8N,3.53
23,P8W,3.05
24,P8H,3.59

row,Variant,protein stability index
1,P8V,3.33
2,P8D,3.68
3,P8R,3.37
4,P8Y,3.34
5,P8K,3.58
6,P8T,3.06
7,P8M,3.66
8,P8L,3.55
9,P8E,3.82
10,P8A,4.13
11,P8F,3.27
12,P8S,3.48
13,P8C,4.2
14,N13H,3.3
15,N13L,3.47
16,N13I,2.87
17,N13K,3.88
18,N13A,3.78
19,N13S,4
20,N13D,4.22
21,N13C,2.78
22,N13F,2.66
23,N13E,3.83
24,N13M,3.79

row,Variant,protein stability index
1,N13P,3.71
2,N13W,2.87
3,N13R,3.31
4,N13Q,3.87
5,N13T,3.76
6,N13V,3.17
7,N13G,2.46
8,N13Y,3.16
9,Q16H,3.44
10,Q16R,3.81
11,Q16W,2.54
12,Q16M,3.46
13,Q16L,2.88
14,Q16S,3.58
15,Q16I,2.83
16,Q16F,2.5
17,Q16T,4.14
18,Q16V,3.11
19,Q16N,3.48
20,Q16G,3.53
21,Q16Y,2.54
22,Q16D,3.97
23,Q16A,3.67
24,Q16P,3.24

row,Variant,protein stability index
1,Q16K,3.51
2,Q16C,3.04
3,Q16E,2.95
4,E6M,2.88
5,E6F,2.3
6,E6Y,2.95
7,E6V,3.17
8,E6P,2.8
9,E6L,2.61
10,E6N,3.48
11,E6D,3.44
12,E6H,3.25
13,E6Q,3.49
14,E6W,2.89
15,E6S,3.1
16,E6T,3.37
17,E6C,3.02
18,E6A,3.13
19,E6G,3.3
20,E6I,3.24
21,E6K,2.79
22,L7M,3.71
23,L7I,3.35
24,L7R,3.81

row,Variant,protein stability index
1,L7V,3.19
2,L7G,3.69
3,L7T,4.12
4,L7H,3.67
5,L7P,4.68
6,L7F,3.2
7,L7A,4.25
8,L7S,3.79
9,L7D,4.51
10,L7Q,4.32
11,L7N,4.11
12,L7E,4.02
13,L7Y,3.06
14,L7K,3.81
15,L7C,3.29
16,L7W,2.62
17,I21N,4.6
18,I21T,4.26
19,I21E,4.53
20,I21F,3.96
21,I21D,4.6
22,I21S,4.33
23,I21M,4.12
24,I21G,4.81

row,Variant,protein stability index
1,I21V,3.9
2,I21A,5.11
3,I21P,4.3
4,I21L,3.96
5,I21Y,3.14
6,I21R,4.52
7,I21W,3.55
8,I21Q,4.18
9,I21H,4.49
10,I21K,4.61
11,I21C,4.33
12,T15L,2.86
13,T15W,2.13
14,T15V,3.48
15,T15M,2.86
16,T15H,3.79
17,T15C,3.26
18,T15D,4.15
19,T15E,3.6
20,T15K,3.5
21,T15P,3.14
22,T15A,3.15
23,T15R,3.76
24,T15G,3.53

row,Variant,protein stability index
1,T15Q,3.63
2,T15F,2.51
3,T15S,3.39
4,T15I,2.78
5,T15N,3.89
6,T15Y,3.22
7,N17L,2.54
8,N17S,2.9
9,N17D,3.99
10,N17I,2.24
11,N17W,2.59
12,N17K,3.23
13,N17M,2.39
14,N17V,2.4
15,N17T,3.51
16,N17A,3.06
17,N17F,2.75
18,N17Y,2.38
19,N17R,3.4
20,N17Q,3.6
21,N17H,3.04
22,N17P,4.18
23,N17E,3.56
24,N17G,4.3

row,Variant,protein stability index
1,G5S,3.61
2,G5H,3.83
3,G5N,3.96
4,G5T,3.93
5,G5L,3.53
6,G5P,2.66
7,G5C,2.8
8,G5R,3.45
9,G5V,3.27
10,G5F,3.18
11,G5K,3.49
12,G5Q,3.77
13,G5I,3.24
14,G5A,3.21
15,G5M,3.41
16,G5D,3.98
17,G5Y,3.17
18,G5E,4.5
19,G5W,2.6
20,W12C,3.94
21,W12I,4.35
22,W12G,4.33
23,W12F,3.92
24,W12T,4.72

row,Variant,protein stability index
1,W12V,4.2
2,W12R,4.31
3,W12N,4.48
4,W12D,4.81
5,W12S,4.67
6,W12L,3.62
7,W12K,4.54
8,W12Y,4.07
9,W12P,4.4
10,W12H,4.08
11,W12A,4.61
12,W12M,4.1
13,W12E,4.71
14,W12Q,4.44
15,R19P,3.87
16,R19A,3.61
17,R19G,3.7
18,R19V,2.28
19,R19E,4.76
20,R19D,4.43
21,R19T,3.21
22,R19W,1.85
23,R19I,2.41
24,R19S,4.08

row,Variant,protein stability index
1,R19N,4.5
2,R19F,2.6
3,R19C,3.05
4,R19L,2.61
5,R19Y,2.11
6,R19Q,3.81
7,R19M,2.86
8,R19K,3.95
9,R19H,3.43
10,E10Y,2.71
11,E10D,3.43
12,E10F,2.45
13,E10T,3.48
14,E10N,3.35
15,E10R,3.17
16,E10Q,3.5
17,E10K,3.05
18,E10S,2.95
19,E10A,2.98
20,E10L,2.98
21,E10H,3.14
22,E10C,2.81
23,E10I,2.55
24,E10G,2.84

row,Variant,protein stability index
1,E10W,2.39
2,E10M,3.09
3,E10V,2.6
4,E10P,3.51
5,V18H,4
6,V18P,3.63
7,V18G,4
8,V18Y,3.34
9,V18E,4.06
10,V18F,3.61
11,V18A,4.38
12,V18M,3.3
13,V18N,4
14,V18Q,4.2
15,V18I,3.97
16,V18K,3.78
17,V18L,3.27
18,V18C,3.9
19,V18R,4.14
20,V18S,3.92
21,V18D,3.83
22,V18T,4.04
23,V18W,3.24
24,T20P,3.79

row,Variant,protein stability index
1,T20A,3.64
2,T20V,2.05
3,T20L,2.79
4,T20S,4.1
5,T20H,3.6
6,T20D,3.61
7,T20E,3.19
8,T20W,2.93
9,T20R,3.32
10,T20K,4.43
11,T20I,1.65
12,T20C,2.92
13,T20Q,3.76
14,T20G,2.9
15,T20F,1.57
16,T20N,3.71
17,T20Y,2.46
18,T20M,3.67
19,L22P,4.7
20,L22R,4.29
21,L22Q,4.25
22,L22D,4.43
23,L22H,4.2
24,L22F,3.54

row,Variant,protein stability index
1,L22A,4.31
2,L22C,4.12
3,L22N,4.47
4,L22E,5.13
5,L22M,4.11
6,L22I,3.05
7,L22K,4.41
8,L22G,4.5
9,P14Y,3.01
10,P14W,3.12
11,P14H,2.98
12,P14S,3.69
13,P14T,4.13
14,P14A,3.34
15,P14R,4.28
16,P14M,3.09
17,P14V,3.48
18,P14D,4.12
19,P14K,3.56
20,P14C,3.35
21,P14L,2.79
22,P14Q,3.93
23,P14N,3.17
24,P14I,2.8

row,Variant,protein stability index
1,P14G,3.71
2,P14F,2.32
3,P14E,4.08
4,S9G,3.27
5,S9L,3.76
6,S9Y,2.92
7,S9T,3.98
8,S9M,3.87
9,S9P,3.43
10,S9C,3.9
11,S9E,3.95
12,S9R,3.43
13,S9W,2.58
14,S9V,3.81
15,S9H,3.47
16,S9I,4.09
17,S9D,3.86
18,S9K,3.94
19,S9F,2.4
20,S9A,4.37
21,S9Q,3.35
22,S9N,3.8

# From the supplement of paper PMC10567573
